The text below walks through data of the supplement of paper PMC12042874.

± gives the uncertainty stated by the source.

The series is described as follows: amyloid nucleation score (Sup35N fusion, yeast selection) (log enrichment); library NNK2; higher = more nucleation; inactive = no reads after selection. The essentials: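 Random libraries were run with three technical output replicates. In each, psi-negative yeast expressing Sup35N fused to peptides of 20 random codons were induced 24 hours with 100 μM copper sulfate and grown 7 days at 30°C on medium lacking adenine and uracil, and input and output plasmid inserts were Illumina-sequenced. The nucleation score is the DiMSum log enrichment of output over input reads, centred on the mode score of non-aggregating sequences, and sequences under 100 input reads were excluded.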
MYKGLISLNCVTSGTRSG came in with an amyloid nucleation score of -1.07 ± 1.1. MYRVLSIKWDRHLTRVHIAW: the amyloid nucleation score result was “inactive”.

In the case of MYWLFR, the amyloid nucleation score came out at 0.461 ± 0.25. On to MYYYSSCKNVQKSHPSSRMQ, for which the amyloid nucleation score result was “inactive”. On to NACPVCSRW, for which the amyloid nucleation score is 0.589 ± 0.38. The substance NAHKTNLVQTLVNRLIELMD came in with an amyloid nucleation score of 0.223 ± 0.29. As to NALADRRFTISPRIFAYLLL, the amyloid nucleation score is 0.312 ± 0.65. Take NAPLCFKHKSRL: the amyloid nucleation score is -0.995 ± 0.44.

In turn, NAQYGRCSLWCPCPTVWTA came in with an amyloid nucleation score of 2.24 ± 0.25.

On to NARGHVNV, for which the amyloid nucleation score was 0.786 ± 0.44.

In turn, NARLRYGSL gave an amyloid nucleation score of -0.101 ± 0.37. Substance NASPFSHKYHEWFEVEGSSI showed an amyloid nucleation score of 0.108 ± 0.65. NATCA returned an amyloid nucleation score of -1.01 ± 0.45.

The substance NAYVEIIIWASRDFMYCRHM gave an amyloid nucleation score of -0.262 ± 0.79. Turning to NCEPELLAVLSRCFSSIWVS, the amyloid nucleation score is -1.27 ± 0.78. For NCETLCVLVGAQYC, the amyloid nucleation score was 4.13 ± 0.049. NCFFITGGNGYNAVLLKYIC returned an amyloid nucleation score of 3.83 ± 0.04.

As for NCGKLHQF, the amyloid nucleation score came to 0.403 ± 0.5. On to NCLVISFKLWHNLMTVGYGD, for which the amyloid nucleation score amounted to 3.66 ± 0.079. The result for NCMPMEYNDGENAVMCGFNG reads 0.11 ± 0.27. Turning to NCRFFIADVSLYPTWFIFYF, the amyloid nucleation score is 2.82 ± 0.12. Turning to NCSSTIDFLFNLIHILKNF, the amyloid nucleation score result was “inactive”. Regarding NCVHRDNWE, the amyloid nucleation score entry is “inactive”.

NCYNMVYNCVPSEKAVKTCR gave an amyloid nucleation score of 0.264 ± 0.32.

NDRILPYSNLWHWERLV displayed an amyloid nucleation score of -0.567 ± 1.1. NDSSLCSSVRPIRMREEFDK gave an amyloid nucleation score of -0.099 ± 0.25. With NDSTLGRLSYNLRDLRSQKM, the amyloid nucleation score was -0.502 ± 0.79. In turn, NECRVDFE displayed an amyloid nucleation score of -0.668 ± 0.56.

The substance NEHYGRTMTN yielded an amyloid nucleation score of -0.064 ± 1.1.

For NENTLNMMKVWVTGGLSTRK, the amyloid nucleation score is 2.89 ± 0.17. The result for NEVSGNGLFSIFSQSGKSYY reads “inactive”. Substance NFACVFHGVDFYRTDSSCRK gave an amyloid nucleation score of 5.17 ± 0.072.

Regarding NFADWTCFDIQVR, the amyloid nucleation score is -0.186 ± 0.32. The result for NFASFCPFFS reads 0.053 ± 0.39. On to NFCLARRYTYIKSPFCVSGK, for which the amyloid nucleation score is 0 ± 0.56. Regarding NFGGIKKLYNTMRSYWLGTR, the amyloid nucleation score was -1.22 ± 0.45. In the case of NFGIKWIVFLKL, the amyloid nucleation score is -0.861 ± 0.28.

On to NFGLEELTGKIGGRTC, for which the amyloid nucleation score was found to be 1.04 ± 0.23.

With NFKECNLDCKSHLRNVWLRQ, the amyloid nucleation score result is “inactive”.

In turn, NFNGGCKFKGDYYRKA had an amyloid nucleation score of 1.14 ± 0.26. With NFSDWIYVFSEVPMLVRCRW the figure was 0.261 ± 0.42; with NFSNVFWKFISRWLTAF, “inactive”; with NFSYRSFNRLVRGRD, “inactive”. The result for NFVLGKTSSVVCSHQSAALT reads 0.505 ± 0.18; that for NGDLIRDRECRANMRFIMRV, -1.21 ± 0.45; that for NGFHCG, “inactive”.

Substance NGNIKFFHRMRRTRHVACLY had an amyloid nucleation score of 0.223 ± 0.39. NGNTVVLGSLIFYKLVLVAS gave an amyloid nucleation score of 5.64 ± 0.033. With NGRRFLSYSVMLRDLRYRSC the figure was 0.138 ± 0.76; with NGRTRCNPFLFGFKGRPGEC, -1.34 ± 1.1; with NGVLRDHWTMAQTCAGVECS, -0.403 ± 1.1. In the case of NHGWLYGWVVVNYTFTTGVM, the amyloid nucleation score was -1.63 ± 0.39.

As to NHSVTWLPD, the amyloid nucleation score worked out at 1.27 ± 0.41. Consider NICIN, for which the amyloid nucleation score entry is “inactive”. With NICLGMCLYHGVSDAVDQSR the figure was 7.971 ± 0.055. As for NIFSWEAVEKARYAHSPLNN, the amyloid nucleation score was -1.44 ± 1.1.

NIGSVKN registered an amyloid nucleation score of 0.098 ± 0.38. Turning to NIKFHVFDLCDSPHGWLPDR, the amyloid nucleation score was determined as 0.224 ± 0.56. Turning to NILLMYFSLK, the amyloid nucleation score is 5.74 ± 0.049.

With NILNFMDS, the amyloid nucleation score was -0.603 ± 1.1. In turn, NILRATTFCVDHLYSSFFCT came in with an amyloid nucleation score of 6.74 ± 0.068. Take NILWSNLGRMCRQLFAVFWS: the amyloid nucleation score is -0.738 ± 0.62.

For NIPAYTSMTFVLWTIL, the amyloid nucleation score was -0.153 ± 0.37. NIPLLLMFHSTIWFKMHIWE yielded an amyloid nucleation score of 1.51 ± 0.11. With NIQTWGSGHVSTSDG the figure was 3.24 ± 0.089. Substance NIVQEHTTCTEVRGVSALAR came in with an amyloid nucleation score of 0.436 ± 0.66.

Regarding NIWRRSSSV, the amyloid nucleation score entry was “inactive”. With NKAHINW the figure was 0.476 ± 0.6; with NKEECL, 0.021 ± 0.35; with NKLLHHFILGAEESLLEIMY, “inactive”. The result for NKMTF reads 0.502 ± 0.44; that for NKNRKQSLDKPS, -0.493 ± 1.1. With NKRSCNGCGSRAHQDSL the figure was -0.176 ± 1.1. On to NKSGDSQLLRVYYIVLVFMW, for which the amyloid nucleation score is -1.08 ± 0.62.

NLDDYPG returned an amyloid nucleation score of 1.66 ± 0.25.

For NLDEVFMFTSTHLVIPLESK, the amyloid nucleation score was -1.6 ± 0.75. The substance NLHVGREPQGSEYVDPFSVV came in with an amyloid nucleation score of 0.731 ± 0.25. In the case of NLIFI, the amyloid nucleation score entry is “inactive”. The substance NLLLLTVRKLNAVNMSTPPY yielded an amyloid nucleation score of 2.05 ± 0.21. NLLYKMTMWTKFGRLSSCCK registered an amyloid nucleation score of 0.001 ± 0.42. Regarding NLRVSFGREDCL, the amyloid nucleation score is -0.347 ± 0.55. Turning to NLSILTICMFLPVDFGI, the amyloid nucleation score stood at 6.525 ± 0.059. Substance NLTYWLVLLRFKKLTDGEHE showed an amyloid nucleation score of -0.259 ± 0.3.

For NLVLRPR, the amyloid nucleation score result was “inactive”.

The substance NLWSSGKWLMCI registered an amyloid nucleation score of -0.292 ± 0.29.

Substance NMFNPFRFRISNYEVCSNMC gave an amyloid nucleation score of 6.257 ± 0.043. Regarding NMIYYGVL, the amyloid nucleation score is -1.24 ± 0.45. With NMVHNDRSRKVKLSWCATFK the figure was 7.609 ± 0.058. In turn, NNDGTPDPNM returned an amyloid nucleation score of -0.237 ± 0.63. With NNEFYRRYVGNYSLVMVMGN the figure was -0.088 ± 1.1; with NNFRWNVMVCYAFQGYSGVK, 2.64 ± 0.068.

In turn, NNKTKPVVFILSMYNYERFS gave an amyloid nucleation score of 2.12 ± 0.25. For NNNGV, the amyloid nucleation score came out at 1.45 ± 0.13. Regarding NNRSELVPKSANRMGFTSLA, the amyloid nucleation score was -0.278 ± 0.29.

Consider NPALVFIHA, for which the amyloid nucleation score result is “inactive”. Substance NPIGFFHDLGVWIWWSSMAT displayed an amyloid nucleation score of -1.26 ± 1.1. On to NPLAIVAS, for which the amyloid nucleation score is -1.77 ± 0.78. In the case of NPNELLLSSCFFHYLVKPWG, the amyloid nucleation score result is “inactive”. With NPRGWAVEMVDYHSTFLKPE the figure was 5.64 ± 0.075; with NPTHLLPHTEIGVLDTCAF, 0.265 ± 1.1. NPTWVRCYWHFWFTVNGFQY came in with an amyloid nucleation score of -1.17 ± 1.1.

In turn, NPWVRFVVSCLYAVSQQCGL gave an amyloid nucleation score of 4.66 ± 0.07. For the substance NPYIINLFCYKIVRLGAIFT, the amyloid nucleation score was determined as 4.14 ± 0.068.

In turn, NQDPRSRLLSNELYGCHFVL yielded an amyloid nucleation score of -0.214 ± 0.28. In turn, NQFVVMDQVLVMWGCFDLTR had an amyloid nucleation score of 0.417 ± 0.46.

Consider NQKSLFVARETSTMFPSPYV, for which the amyloid nucleation score is -0.141 ± 0.38. With NQLRVLMTIFWPGMLNTPAV the figure was 0.622 ± 0.31; with NQVSIIHWWAAYDYWSPM, -0.163 ± 0.6.

NRAAKRGIRRHMSSYTYARV came in with an amyloid nucleation score of 0.153 ± 0.36. In turn, NRHMLNTDRRPQVRLHFGTL had an amyloid nucleation score of 0.232 ± 0.37.

On to NRHPRRYRNNAGDDSLMRIL, for which the amyloid nucleation score worked out at 1.74 ± 0.096. With NRIFGTHLTFSGYS, the amyloid nucleation score was -0.466 ± 0.5. NRLPFKYLSIDIYPCLASLA came in with an amyloid nucleation score of -0.3 ± 0.26.

With NRMFLLVLFVEL, the amyloid nucleation score was found to be 0.572 ± 0.27. With NRSDPDLCNKC the figure was 1.96 ± 0.14.

The substance NRSIVYGYFQLYENFNWPFS came in with an amyloid nucleation score of 0.913 ± 0.19.

NRSVCLYYFAQVYKCCSNAV had an amyloid nucleation score of 3.42 ± 0.14. Substance NRTTSVWG yielded an amyloid nucleation score of -0.889 ± 1. The result for NRVGSIPIGPVFTADVAIVL reads 4.16 ± 0.091; that for NRVLSFPRWGAIYVYTMTEF, -0.892 ± 1.1; that for NRYVLCNLVVISVSGISLCT, 7.249 ± 0.063. With NSAVATYCVVGQVPEK, the amyloid nucleation score is 0.883 ± 0.44. In turn, NSEHTNLSSHLGNIRFINCL displayed an amyloid nucleation score of 0.037 ± 0.79. On to NSFMPMTWLPFRSQTEKRGS, for which the amyloid nucleation score worked out at 3.73 ± 0.075. NSGCLSLGFRHLSNPWLHS: the amyloid nucleation score was 2.71 ± 0.096. As for NSHRKNHFIGGWDFTCEIYN, the amyloid nucleation score result was “inactive”. The result for NSIGPTPGGN reads 0.123 ± 1; that for NSKTDSVHYYIDVLSPTHIF, -1.09 ± 0.78; that for NSLGRYSFRFVRCEGVWKTR, -0.88 ± 0.76. In turn, NSLVLFFSVGVLRL came in with an amyloid nucleation score of 1.37 ± 0.21. In turn, NSMTQFCIQCGGTTIAWSMF returned an amyloid nucleation score of 6.663 ± 0.039. With NSRGN, the amyloid nucleation score is -0.293 ± 0.56. With NSRLRRVYAGSARGAWTYRR the figure was 1.14 ± 0.38.

Turning to NSRYPDRGILKLVV, the amyloid nucleation score was determined as 0.409 ± 0.65. The result for NSSMTRLGNTYLYHNNLHLV reads -1.25 ± 0.76. In the case of NSSWSAPSLCLCM, the amyloid nucleation score turned out to be 9.527 ± 0.045.

As to NSVFKGFLNRFRF, the amyloid nucleation score amounted to 2.32 ± 0.19. The result for NSVRSV reads “inactive”. As for NSWWTVLFRFYKALSLPRAR, the amyloid nucleation score was -0.839 ± 0.78. The substance NTCMLRARVSVMQNEE returned an amyloid nucleation score of 0.071 ± 0.35. Take NTIQCY: the amyloid nucleation score entry was “inactive”.
